# Assay results as given in patent publication US20190112392A1 (Ablynx, published 2019).
# T1: CEACAM5 on cells (UniProt P06731 35-685)
# T1 sequence (looked up): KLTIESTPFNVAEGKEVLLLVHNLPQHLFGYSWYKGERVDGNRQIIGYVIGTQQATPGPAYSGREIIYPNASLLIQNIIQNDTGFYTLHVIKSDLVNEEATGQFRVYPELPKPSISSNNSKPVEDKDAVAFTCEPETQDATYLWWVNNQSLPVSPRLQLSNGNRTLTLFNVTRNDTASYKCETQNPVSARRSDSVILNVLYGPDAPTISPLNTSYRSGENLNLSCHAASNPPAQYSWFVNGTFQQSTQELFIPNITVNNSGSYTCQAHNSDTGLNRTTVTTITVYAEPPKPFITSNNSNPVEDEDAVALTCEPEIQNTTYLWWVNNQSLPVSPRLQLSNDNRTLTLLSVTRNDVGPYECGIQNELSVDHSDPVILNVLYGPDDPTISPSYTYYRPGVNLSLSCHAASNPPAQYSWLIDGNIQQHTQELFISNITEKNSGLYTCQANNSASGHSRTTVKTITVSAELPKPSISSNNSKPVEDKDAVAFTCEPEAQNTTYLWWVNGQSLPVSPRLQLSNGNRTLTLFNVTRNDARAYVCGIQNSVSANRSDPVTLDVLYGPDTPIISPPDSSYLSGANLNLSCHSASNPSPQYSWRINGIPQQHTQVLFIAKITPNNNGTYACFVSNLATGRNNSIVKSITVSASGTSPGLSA
# T2: T cell receptor alpha/beta on purified primary human T cells (human, UniProt P01848 1-140; P01850 1-176)
# T2 construct: whole, on cells; also called human primary T cells
# T2 TCR alpha (looked up): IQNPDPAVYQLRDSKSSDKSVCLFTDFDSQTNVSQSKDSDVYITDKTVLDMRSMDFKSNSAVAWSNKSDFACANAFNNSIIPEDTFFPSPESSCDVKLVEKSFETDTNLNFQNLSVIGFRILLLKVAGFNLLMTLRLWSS
# T2 TCR beta (looked up): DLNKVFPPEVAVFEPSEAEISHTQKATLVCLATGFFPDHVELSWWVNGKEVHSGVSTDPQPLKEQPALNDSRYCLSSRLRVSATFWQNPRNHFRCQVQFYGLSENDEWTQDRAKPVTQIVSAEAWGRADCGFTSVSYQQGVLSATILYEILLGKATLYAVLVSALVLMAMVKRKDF
# T3: soluble recombinant cynomolgus TCR alpha/beta-zipper protein (cynomolgus/rhesus monkey)
# T3 construct: Made in house in CHOK1SV cells; extracellular domains fused to a zipper protein; also called cynoTCR-zipper protein; not shown: zipper protein (O'Shea et al. 1993)
# T3 V domain 1: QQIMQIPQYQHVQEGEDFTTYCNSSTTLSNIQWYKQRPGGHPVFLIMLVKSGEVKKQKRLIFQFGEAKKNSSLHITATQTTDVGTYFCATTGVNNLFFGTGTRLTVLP
# T3 V domain 2: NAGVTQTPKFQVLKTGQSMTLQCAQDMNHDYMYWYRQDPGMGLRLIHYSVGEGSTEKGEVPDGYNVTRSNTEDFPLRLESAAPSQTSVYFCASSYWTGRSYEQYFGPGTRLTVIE
# Key:
# [1] = molecular target: T4, EGFR on cells (UniProt P00533 25-1210, limits assumed); assay: flow cytometry, HER14 cells
# T4 construct: whole, on cells; also called HER14 cells (NIH3T3 transfected with EGFR); EGFR on LS174T and LoVo cells
# [2] = molecular target: T4, EGFR on cells; assay: cell-based or functional assay
# [3] = molecular target: T4, EGFR on cells; assay: cell-based or functional assay; remark: listed apart in the source
# [4] = molecular target: T4, EGFR on cells; assay: flow cytometry, LS174T cells; set-up: Top: unit not given here
# [5] = molecular target: T4, EGFR on cells; assay: flow cytometry, LoVo cells; set-up: Top: unit not given here
# [6] = molecular target: HER2 on cells (human, UniProt P04626 23-1255); assay: cell-based or functional assay
# [7] = molecular target: T cell receptor alpha/beta on primary cynomolgus T cells (cynomolgus); assay: cell-based or functional assay
# [8] = molecular target: T1, CEACAM5 on cells; assay: cell-based or functional assay
# [9] = molecular target: T1, CEACAM5 on cells; assay: cell-based or functional assay; remark: listed apart in the source
# [10] = molecular target: T1, CEACAM5 on cells; assay: flow cytometry, LS174T cells; set-up: Top: unit not given here
# [11] = molecular target: T4, EGFR on cells; assay: flow cytometry on HER14 cells, MeanFI (PE)
# [12] = molecular target: T1, CEACAM5 on cells; assay: flow cytometry, LoVo cells; set-up: Top: unit not given here
# [13] = molecular target: T5, human CD3 expressed on HEK293H cells (human, UniProt P04234 22-171; P09693 23-182; P07766 23-207; P20963 22-164); assay: flow cytometry, HEK293H human CD3 cells
# T5 construct: also called HEK293H human CD3; HEK293H CD3
# Description: (§1) Binding of purified monovalent anti-TCR Nanobodies to human TCR(2IAN)/CD3 expressed on HEK293H cells was evaluated and compared with the binding to HEK293H cells transfected with human CD3 in flow cytometry, as outlined in Example 5. Dilution series of anti-TCR Nanobodies starting from 1 μM were applied to the cells. The parental HEK293H cell line was included as TCR/CD3 negative cell line.
# Nanobodies clearly bound to human TCR(2IAN)/CD3 expressed on HEK293H but not to the HEK293H cells transfected with human CD3 only, nor to the HEK293H parental cell line. The EC50 values obtained from the dose response curve are depicted in Table C-2.
# [14] = molecular target: T5, human CD3 expressed on HEK293H cells; assay: flow cytometry on HEK293H human CD3 cells, MCF
# Description: as §1
# [15] = molecular target: T2, T cell receptor alpha/beta on purified …; assay: flow cytometry, purified primary human T cells
# Description: Periplasmic extracts were screened for cell expressed TCR/CD3 binding using human TCR/CD3 transfected CHO-K1 or HEK293H cells and the respective CHO-K1 or HEK293H reference cell line in a mixed cell line setup. To this end, a large batch of the reference cell lines were labelled with 8 μM PKH26 and frozen. 5×10⁴ PKH labelled reference cells were mixed with 5×10⁴ target cells and incubated with periplasmic extracts for 30 min at 4′C, and washed 3 times. […] Samples were washed, resuspended in FACS Buffer (D-PBS from Gibco, with 10% FBS from Sigma and 0.05% sodium azide from Merck) and then analysed via a BD FACSArray. […] In this gate, 20,000 cells were counted during acquisition. Based on PKH26-SSC distribution, the PKH labelled parental population and the human TCR/CD3 unlabelled target population was selected. For these 2 populations the mean APC value was calculated.
# Binding of purified monovalent anti-TCR Nanobodies to human TCR(2XN9)/CD3 expressed on CHO-K1 cells and to purified primary human T cells was evaluated in flow cytometry as outlined in Example 4.1.
# [16] = molecular target: T3, soluble recombinant cynomolgus TCR …; assay: ELISA, coated soluble cynomolgus TCR-zipper
# Description: Quality of the TCR α/β zipper proteins was assessed in an ELISA binding assay. Maxisorp 96-well ELISA plates (Nunc) were coated with 2 μg/mL soluble recombinant human TCR α/β (2XN9)-zipper protein or soluble recombinant cynomolgus TCR α/β-zipper protein. After an overnight incubation, plates were washed and blocked with PBS+1% casein for 1 h at room temperature. Next, plates were incubated with serial dilutions of either a functional flag tagged Nanobody or the functional mouse IgG anti-non-human primate/Rat TCRα/β antibody, clone R73 (eBioscience 16-5960) for 1 h at room temperature while shaking, washed again and incubated with mouse anti-flag-HRP (Sigma, #A8592) respectively rabbit anti-mouse-HRP (Dako, # P0260). After 1 h, TMB One Solution (Promega #G7431) was added. The reaction was stopped with 2M H₂SO₄ and the dose dependent binding was determined by measuring the OD at 450 nm using the Tecan sunrise 4 (FIG. 2).
# Binding of purified monovalent anti-TCR Nanobodies to soluble recombinant cynomolgus TCR c/3 protein was evaluated in ELISA (as described in Example 1.2) using 2 μg/ml directly coated recombinant soluble cynomolgus TCR-α/β zipper protein.
# T5 sequence (P04234 22-171 limits assumed, chain 1 of 4): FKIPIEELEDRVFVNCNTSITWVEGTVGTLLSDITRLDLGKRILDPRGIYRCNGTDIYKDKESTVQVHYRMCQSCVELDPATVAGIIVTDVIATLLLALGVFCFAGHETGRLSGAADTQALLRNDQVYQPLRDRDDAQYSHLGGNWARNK
# T5 sequence (P09693 23-182 limits assumed, chain 2 of 4): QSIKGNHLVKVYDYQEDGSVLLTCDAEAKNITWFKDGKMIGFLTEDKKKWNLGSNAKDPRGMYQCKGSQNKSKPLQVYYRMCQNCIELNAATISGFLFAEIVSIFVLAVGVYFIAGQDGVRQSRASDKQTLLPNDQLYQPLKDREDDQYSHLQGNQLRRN
# T5 sequence (P07766 23-207 limits assumed, chain 3 of 4): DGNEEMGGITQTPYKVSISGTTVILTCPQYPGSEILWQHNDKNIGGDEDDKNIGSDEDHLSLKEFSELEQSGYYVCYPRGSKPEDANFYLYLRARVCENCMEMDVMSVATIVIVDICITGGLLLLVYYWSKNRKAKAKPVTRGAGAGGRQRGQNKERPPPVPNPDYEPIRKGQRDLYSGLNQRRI
# T5 sequence (P20963 22-164 limits assumed, chain 4 of 4): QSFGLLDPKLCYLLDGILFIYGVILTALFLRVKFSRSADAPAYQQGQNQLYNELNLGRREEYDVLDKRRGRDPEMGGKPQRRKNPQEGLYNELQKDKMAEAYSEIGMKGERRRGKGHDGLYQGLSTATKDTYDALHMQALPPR
binder,measurement,setting,value
"T017000110 (other, EGFR x irrelevant (anti-egg lysozyme) x TCR Nanobody construct; entry includes the FLAG3-HIS6 tag; also called EGFR038G07-35GS-cAbLys3(D1E,Q5V,A6E,Q108L)-35GS-T0170056G05-FLAG3-HIS6) EVQLVESGGGLVQAGGSLRLSCAASGRTFSSYVMGWFRQATGKEREFVATIAWDSGSTYYADSVKGRFTISRDNAKNTVHLQMNSLKPEDTAVYYCAASYNVYYNNYYYPISRDEYDYWGQGTLVTVSSGGGGSGGGGSGGGGSGGGGSGGGGSGGGGSGGGGSEVQLVESGGGSVQAGGSLRLSCAASGYTIGPYCMGWFRQAPGKEREGVAAINMGGGITYYADSVKGRFTISQDNAKNTVYLLMNSLEPEDTAIYYCAADSTIYASYYECGHGLSTGGYGYDSWGQGTLVTVSSGGGGSGGGGSGGGGSGGGGSGGGGSGGGGSGGGGSEVQLVESGGGLVQPGGSLRLSCVASGDVHKINFLGWYRQAPGKEREKVAHISIGDQTDYADSAKGRFTISRDESKNMVYLQMNSLKPEDTAVYFCRAFSRIYPYDYWGQGTLVTVSSGAADYKDHDGDYKDHDIDYKDDDDKGAAHHHHHH",EC50,[1],7.3 nM
same,Top,[1],165000
same,"IC50, xCELLigence human T cell mediated killing of LS174T cells, E:T 15, 30-40 h",[2],26 nM
same,"IC50, xCELLigence human T cell mediated killing of LoVo cells, E:T 15, 30-40 h",[2],1.5 nM
same,"IC50, xCELLigence human T cell mediated killing of HER14 cells, E:T 15, 50-60 h",[3],0.42 nM
same,"IC50, xCELLigence human T cell mediated killing of LS174T cells, E:T 15, 50-60 h",[3],8.9 nM
same,"IC50, xCELLigence human T cell mediated killing of LoVo cells, E:T 15, 50-60 h",[3],0.6 nM
same,EC50,[4],6.3 nM
same,Top,[4],40800
same,EC50,[5],2.4 nM
same,Top,[5],95900
T017000103 (bispecific antibody) EVQLVESGGGLVQPGGSLRLSCVASGDVHKINFLGWYRQAPGKEREKVAHISIGDQTDYADSAKGRFTISRDESKNMVYLQMNSLKPEDTAVYFCRAFSRIYPYDYWGQGTLVTVSSGGGGSGGGGSGGGGSGGGGSGGGGSGGGGSGGGGSEVQLVESGGGLVQAGGSLRLSCAASGITFSINTMGWYRQAPGKQRELVALISSIGDTYYADSVKGRFTISRDNAKNTVYLQMNSLKPEDTAVYYCKRFRTAAQGTDYWGQGTLVTVSSGAADYKDHDGDYKDHDIDYKDDDDKGAAHHHHHH,"IC50, xCELLigence based cytotoxicity (readout 18 h), MCF-7, human T cells, E/T 15:1",[6],0.059 nM
same,"IC50, xCELLigence based cytotoxicity (readout 18 h), SKBR3, human T cells, E/T 15:1",[6],0.0038 nM
same,"IC50, xCELLigence cynomolgus T cell mediated SKBR3 killing assay",[7],0.012 nM
"T017000109 (other, Irrelevant (anti-egg lysozyme) x CEACAM5 x TCR Nanobody construct; entry includes the FLAG3-HIS6 tag; also called cAbLys3(D1E,Q5V,A6E,Q108L)-35GS-NbCEA5-35GS-T0170056G05-FLAG3-HIS6) EVQLVESGGGSVQAGGSLRLSCAASGYTIGPYCMGWFRQAPGKEREGVAAINMGGGITYYADSVKGRFTISQDNAKNTVYLLMNSLEPEDTAIYYCAADSTIYASYYECGHGLSTGGYGYDSWGQGTLVTVSSGGGGSGGGGSGGGGSGGGGSGGGGSGGGGSGGGGSEVQLVESGGGSVQAGGSLRLSCAASGDTYGSYWMGWFRQAPGKEREGVAAINRGGGYTVYADSVKGRFTISRDTAKNTVYLQMNSLRPDDTADYYCAASGVLGGLHEDWFNYWGQGTLVTVSSGGGGSGGGGSGGGGSGGGGSGGGGSGGGGSGGGGSEVQLVESGGGLVQPGGSLRLSCVASGDVHKINFLGWYRQAPGKEREKVAHISIGDQTDYADSAKGRFTISRDESKNMVYLQMNSLKPEDTAVYFCRAFSRIYPYDYWGQGTLVTVSSGAADYKDHDGDYKDHDIDYKDDDDKGAAHHHHHH","IC50, xCELLigence human T cell mediated killing of LS174T cells, E:T 15, 30-40 h",[8],100 nM
same,"IC50, xCELLigence human T cell mediated killing of LoVo cells, E:T 15, 30-40 h",[8],9.3 nM
same,"IC50, xCELLigence human T cell mediated killing of LS174T cells, E:T 15, 50-60 h",[9],36 nM
same,"IC50, xCELLigence human T cell mediated killing of LoVo cells, E:T 15, 50-60 h",[9],2 nM
same,EC50,[10],25 nM
same,Top,[10],51000
same,binding result,[11],no binding (tested: 5e-7 M)
same,EC50,[12],36 nM
same,Top,[12],18500
"T0170068G05 (VHH, Monovalent anti-TCR Nanobody, cluster B; expressed in E. coli as triple Flag, His6-tagged protein; also called T0170PMP068G05; not shown: C-terminal triple Flag-His6 tag of the E. coli-made monovalent Nanobody) VHH: VQLVEESGGGLVQPGGSLRLSCITSGETFKINIWGWYRQAPGKQRELVASLTIGGATNYADSVKGRFTISEDSAKNTVYLQMNSLKPEDTAVYFCNAKSRIYPYDYWGRGTQVTVSS",MCF at 1 µM,[13],240 MCF
same,binding result,[14],no binding (tested: 1e-6 M)
same,EC50,[15],> 100 nM
same,EC50,[16],87 nM
T017000102 (bispecific antibody) EVQLVESGGGLVQAGGSLRLSCAASGITFSINTMGWYRQAPGKQRELVALISSIGDTYYADSVKGRFTISRDNAKNTVYLQMNSLKPEDTAVYYCKRFRTAAQGTDYWGQGTLVTVSSGGGGSGGGGSGGGGSGGGGSGGGGSGGGGSGGGGSEVQLVESGGGLVQPGGSLRLSCVASGDVHKINFLGWYRQAPGKEREKVAHISIGDQTDYADSAKGRFTISRDESKNMVYLQMNSLKPEDTAVYFCRAFSRIYPYDYWGQGTLVTVSSGAADYKDHDGDYKDHDIDYKDDDDKGAAHHHHHH,"IC50 (column head prints EC50), xCELLigence based cytotoxicity (readout 18 h), MCF-7, human T cells, E/T 15:1",[6],0.12 nM
same,"IC50, xCELLigence based cytotoxicity (readout 18 h), SKBR3, human T cells, E/T 15:1",[6],0.014 nM
same,"IC50, xCELLigence cynomolgus T cell mediated SKBR3 killing assay",[7],0.046 nM
